Here are results for one molecule from publication doi:10.1101/2021.08.28.458030.

For the assay, the target named is T1, Human fumarase (human), P07954.
T1 chain: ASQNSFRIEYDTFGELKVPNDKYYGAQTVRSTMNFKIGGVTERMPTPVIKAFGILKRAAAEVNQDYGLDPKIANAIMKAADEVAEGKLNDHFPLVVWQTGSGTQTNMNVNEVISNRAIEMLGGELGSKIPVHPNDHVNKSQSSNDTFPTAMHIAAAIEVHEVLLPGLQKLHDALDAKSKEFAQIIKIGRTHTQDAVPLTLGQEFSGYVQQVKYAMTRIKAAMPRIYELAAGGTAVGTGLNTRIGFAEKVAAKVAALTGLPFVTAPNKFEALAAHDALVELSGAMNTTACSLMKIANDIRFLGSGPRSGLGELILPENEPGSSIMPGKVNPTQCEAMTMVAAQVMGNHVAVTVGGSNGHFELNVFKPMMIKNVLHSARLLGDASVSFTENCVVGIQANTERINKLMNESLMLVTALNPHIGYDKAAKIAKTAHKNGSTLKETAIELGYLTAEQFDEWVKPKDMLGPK
Nature of the assay: crystal structure. To be noted: remark: other sources report otherwise.

B1: Human fumarase, P07954 45-510 (enzyme)
chain: ASQNSFRIEYDTFGELKVPNDKYYGAQTVRSTMNFKIGGVTERMPTPVIKAFGILKRAAAEVNQDYGLDPKIANAIMKAADEVAEGKLNDHFPLVVWQTGSGTQTNMNVNEVISNRAIEMLGGELGSKIPVHPNDHVNKSQSSNDTFPTAMHIAAAIEVHEVLLPGLQKLHDALDAKSKEFAQIIKIGRTHTQDAVPLTLGQEFSGYVQQVKYAMTRIKAAMPRIYELAAGGTAVGTGLNTRIGFAEKVAAKVAALTGLPFVTAPNKFEALAAHDALVELSGAMNTTACSLMKIANDIRFLGSGPRSGLGELILPENEPGSSIMPGKVNPTQCEAMTMVAAQVMGNHVAVTVGGSNGHFELNVFKPMMIKNVLHSARLLGDASVSFTENCVVGIQANTERINKLMNESLMLVTALNPHIGYDKAAKIAKTAHKNGSTLKETAIELGYLTAEQFDEWVKPKDMLGPK
On to B1, for which the stoichiometry N was determined as 4.
